Measured values taken from publication PMC8571288.

Columns and labels:
[1] = biological target: CST complex (CTC1-STN1-TEN1) (Homo sapiens) (UniProt Q2NKJ3+Q9H668+Q86WV5); assay: smFRET; details: smFRET: 25 mM Tris-HCl pH 7.5, 0.5 mM EDTA, 10% glycerol, 50 or 150 mM KCl (temperature not stated), pull-down: 35 mM Tris-HCl pH 7.5, 10% glycerol, 0.01% …
[2] = biological target: RPA complex (Homo sapiens) (UniProt P27694+P15927+P35244); assay: smFRET; details: smFRET: 25 mM Tris-HCl pH 7.5, 0.5 mM EDTA, 10% glycerol, 50 or 150 mM KCl (temperature not stated), pull-down: 35 mM Tris-HCl pH 7.5, 10% glycerol, 0.01% …
RPA complex (Homo sapiens), sequence (P27694 whole entry, chain 1 of 3): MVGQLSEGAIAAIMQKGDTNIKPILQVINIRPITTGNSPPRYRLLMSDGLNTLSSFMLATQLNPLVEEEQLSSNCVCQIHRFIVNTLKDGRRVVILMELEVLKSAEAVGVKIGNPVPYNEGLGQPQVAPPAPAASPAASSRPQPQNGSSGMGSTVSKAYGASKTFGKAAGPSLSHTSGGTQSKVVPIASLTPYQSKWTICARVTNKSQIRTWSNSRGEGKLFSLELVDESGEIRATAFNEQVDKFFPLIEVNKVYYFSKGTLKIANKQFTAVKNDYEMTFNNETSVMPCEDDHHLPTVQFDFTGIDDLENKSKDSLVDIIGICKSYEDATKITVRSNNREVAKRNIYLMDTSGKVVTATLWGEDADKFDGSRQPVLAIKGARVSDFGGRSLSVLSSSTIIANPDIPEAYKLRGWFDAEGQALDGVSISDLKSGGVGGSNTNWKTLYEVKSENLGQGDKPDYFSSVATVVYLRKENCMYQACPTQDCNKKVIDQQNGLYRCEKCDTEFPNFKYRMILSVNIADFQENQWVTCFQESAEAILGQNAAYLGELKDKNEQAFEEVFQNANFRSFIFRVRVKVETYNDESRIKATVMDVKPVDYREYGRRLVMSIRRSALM
RPA complex (Homo sapiens), sequence (P15927 whole entry, chain 2 of 3): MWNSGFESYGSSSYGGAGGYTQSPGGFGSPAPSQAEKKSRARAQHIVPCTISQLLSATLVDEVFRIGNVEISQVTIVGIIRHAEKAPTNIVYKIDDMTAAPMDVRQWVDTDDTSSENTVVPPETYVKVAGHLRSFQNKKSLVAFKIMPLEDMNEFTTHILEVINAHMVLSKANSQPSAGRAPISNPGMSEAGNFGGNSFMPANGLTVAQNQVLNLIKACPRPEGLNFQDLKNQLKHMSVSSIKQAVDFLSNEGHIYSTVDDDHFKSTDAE
RPA complex (Homo sapiens), sequence (P35244 whole entry, chain 3 of 3): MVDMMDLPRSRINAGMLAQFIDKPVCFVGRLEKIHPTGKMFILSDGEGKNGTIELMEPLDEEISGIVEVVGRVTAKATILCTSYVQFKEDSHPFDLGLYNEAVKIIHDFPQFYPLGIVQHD

CST complex (CTC1-STN1-TEN1) (Homo sapiens), sequence (Q2NKJ3 whole entry, chain 1 of 3): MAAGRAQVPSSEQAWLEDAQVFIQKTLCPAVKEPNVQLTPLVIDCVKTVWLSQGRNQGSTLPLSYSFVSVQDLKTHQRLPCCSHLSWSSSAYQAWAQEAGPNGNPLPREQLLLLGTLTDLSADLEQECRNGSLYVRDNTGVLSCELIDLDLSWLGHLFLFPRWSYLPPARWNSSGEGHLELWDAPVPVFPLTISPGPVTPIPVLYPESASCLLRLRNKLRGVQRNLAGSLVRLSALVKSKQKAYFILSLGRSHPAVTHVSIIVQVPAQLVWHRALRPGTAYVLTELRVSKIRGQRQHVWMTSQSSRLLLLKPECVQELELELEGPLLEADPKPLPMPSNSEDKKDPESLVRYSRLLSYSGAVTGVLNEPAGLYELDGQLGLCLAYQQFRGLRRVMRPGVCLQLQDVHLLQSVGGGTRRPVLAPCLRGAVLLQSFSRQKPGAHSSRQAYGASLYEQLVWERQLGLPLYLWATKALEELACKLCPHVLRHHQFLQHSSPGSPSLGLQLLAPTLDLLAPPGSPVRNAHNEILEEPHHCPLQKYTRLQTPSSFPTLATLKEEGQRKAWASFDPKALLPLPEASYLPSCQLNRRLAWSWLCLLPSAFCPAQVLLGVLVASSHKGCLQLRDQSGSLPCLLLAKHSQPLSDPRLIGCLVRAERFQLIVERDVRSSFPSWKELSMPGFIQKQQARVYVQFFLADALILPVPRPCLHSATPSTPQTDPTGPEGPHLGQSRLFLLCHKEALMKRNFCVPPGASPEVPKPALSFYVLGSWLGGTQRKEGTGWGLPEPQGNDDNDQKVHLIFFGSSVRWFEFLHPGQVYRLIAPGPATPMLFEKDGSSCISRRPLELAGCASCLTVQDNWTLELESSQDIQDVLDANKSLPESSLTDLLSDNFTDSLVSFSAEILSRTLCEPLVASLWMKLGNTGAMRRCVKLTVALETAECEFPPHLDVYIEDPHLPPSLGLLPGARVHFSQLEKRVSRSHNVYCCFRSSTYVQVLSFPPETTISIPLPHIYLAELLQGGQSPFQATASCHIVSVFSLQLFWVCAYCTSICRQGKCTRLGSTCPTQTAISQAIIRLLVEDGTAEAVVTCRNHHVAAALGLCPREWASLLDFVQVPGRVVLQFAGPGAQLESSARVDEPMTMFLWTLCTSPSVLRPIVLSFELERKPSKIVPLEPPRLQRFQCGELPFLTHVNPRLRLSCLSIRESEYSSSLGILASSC
CST complex (CTC1-STN1-TEN1) (Homo sapiens), sequence (Q9H668 whole entry, chain 2 of 3): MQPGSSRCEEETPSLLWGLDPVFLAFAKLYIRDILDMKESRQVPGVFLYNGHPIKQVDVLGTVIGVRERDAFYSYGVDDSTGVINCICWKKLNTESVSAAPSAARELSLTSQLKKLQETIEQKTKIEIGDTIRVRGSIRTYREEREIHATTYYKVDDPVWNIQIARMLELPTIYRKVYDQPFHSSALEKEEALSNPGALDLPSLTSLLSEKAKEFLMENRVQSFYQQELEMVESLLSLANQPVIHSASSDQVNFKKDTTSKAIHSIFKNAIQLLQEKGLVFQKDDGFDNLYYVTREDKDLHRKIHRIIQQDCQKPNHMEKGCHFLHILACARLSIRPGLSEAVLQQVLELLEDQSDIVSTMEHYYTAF
CST complex (CTC1-STN1-TEN1) (Homo sapiens), sequence (Q86WV5 whole entry, chain 3 of 3): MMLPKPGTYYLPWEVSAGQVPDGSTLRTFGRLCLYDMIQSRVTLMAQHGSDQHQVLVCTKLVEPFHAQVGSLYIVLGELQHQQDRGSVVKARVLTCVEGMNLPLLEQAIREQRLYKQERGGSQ

## ACGCTGCCGAATTCTACCAGTGCCTTGCTAGGACATCTTTGCCCACCTGCAGGTTCACCC / GGGTGAACCTGCAGGTGGGCAAAGA [35-nt ssDNA overhang (Oligo 5+6)]
[1]; 50 mM KCl, Hill slope 2.74
  Kd: 120 pM
[1]; 150 mM KCl, Hill slope 1.4
  Kd: 290 pM
[2]; 50 mM KCl, Hill slope 3.14
  Kd: 120 pM
[2]; 150 mM KCl, Hill slope 2.83
  Kd: 110 pM
